Test results from doi:10.1101/2023.07.12.548668.

Biological target: XLF (UniProt Q9H9Q4 1-299)
Experiment: NMR titration (2D lineshape, TITAN); apparent KD; NMR buffer (composition, salt and pH not in material); 800 MHz, 298 K stated for relaxation measurements; EMSA buffer not given
Conditions: protein: recombinant; tags: N-terminal 6xHis-TEV; chain copies: 2; blunt

Chain of XLF (Q9H9Q4 whole entry): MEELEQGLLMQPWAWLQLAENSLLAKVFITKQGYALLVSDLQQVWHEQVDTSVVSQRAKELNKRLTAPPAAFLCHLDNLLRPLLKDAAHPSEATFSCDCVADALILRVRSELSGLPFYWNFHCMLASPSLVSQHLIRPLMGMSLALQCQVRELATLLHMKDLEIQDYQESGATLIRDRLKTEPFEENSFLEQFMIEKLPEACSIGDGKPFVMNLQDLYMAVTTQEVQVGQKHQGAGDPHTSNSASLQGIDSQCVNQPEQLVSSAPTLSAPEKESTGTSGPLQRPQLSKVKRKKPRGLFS

Row | Binder | Kd [µM]
1 | 30mer AT-rich DNA (dsDNA) DNA 1: GAAGTAAAATTAAAAAAACAAAAAGAAGCT DNA 2: AGCTTCTTTTTGTTTTTTTAATTTTACTTC | 4.3 ± 0.42
2 | 30mer DNA (random) (dsDNA) DNA 1: GATCCCTCTAGATATCGGGCCCTCGATCCG DNA 2: CGGATCGAGGGCCCGATATCTAGAGGGATC | 14.3 ± 0.9
3 | 30mer GC-rich DNA (dsDNA) DNA 1: TACCGGGGCGCGAGCCCAGCGCTCCTCCCA DNA 2: TGGGAGGAGCGCTGGGCTCGCGCCCCGGTA | 6.39 ± 0.81
